These results are taken from article doi:10.1101/2022.07.04.498669.

The target of the assay is paDXPS as measured by native mass spectrometry (Pseudomonas aeruginosa) (UniProt Q9KGU7). In words: native MS.

In general, stoichiometry N refers to the number of molecules, sites or subunits per partner or assembly. Consider “paDXPS as measured by native mass spectrometry (from UniProt Q9KGU7 1-627) (enzyme)”, for which the stoichiometry N is 2.
